Measurements reported in patent US20090280138A1 (OXFORD BIOMEDICA UK, published 2009).

Columns and labels:
Assay in all cases: iTopia iScore
[1] = molecular target: T1, MHC class I molecule A*0301 (biotin (bound to streptavidin-coated plate))
T1 construct: also called A3; HLA-A3
Experimental: (§1) The 9 mers were tested for Peptide Binding, Off Rate and Affinity using iTopia Epitope Discovery System in accordance with the manufacturer's instructions. Briefly, 96 well microtitre plates coated with MHC molecules representing different MHC alleles are used to identify candidate peptides. […] Determinations are performed in duplicate using an ELISA plate reader and included allele specific positive controls.
(§2) Finally, multiparametric analysis is performed on the results from these assays and an iScore is generated. The iScore represents a measure of the overall quality of peptide-MHC binding, enabling candidate peptides to be ranked in order of binding quality and allowing rational prioritisation of peptides for functional cellular follow-up studies.

[2] = molecular target: T2, MHC class I molecule B*0702 (biotin (bound to streptavidin-coated plate))
T2 construct: also called B7; HLA-B7
Experimental: as §1, §2

[3] = molecular target: T3, MHC class I molecule A*0201 (biotin (bound to streptavidin-coated plate))
T3 construct: also called A2; HLA-A2
Experimental: as §1, §2

[4] = molecular target: T4, MHC class I molecule A*0101 (biotin (bound to streptavidin-coated plate))
T4 construct: also called A1; HLA-A1
Experimental: as §1, §2

| Binder | iScore [1] | iScore [2] | iScore [3] | iScore [4] |
| --- | --- | --- | --- | --- |
| CVNRNLTEV [5T4 9-mer peptide 39 CVNRNLTEV] | 0 | 0.093 | 0.05 | 0 |
| SEAARTVKC [5T4 9-mer peptide 35 SEAARTVKC] | 0 | 0 | 0 | 0 |
| CSRGPAAGD [5T4 9-mer peptide 3 CSRGPAAGD] | 0 | 0 | 0 | 0 |
| AYVRNLFLT [5T4 9-mer peptide 46 AYVRNLFLT] | 0 | 0 | 0.18 | 0 |
| LLGWVSSSS [5T4 9-mer peptide 13 LLGWVSSSS] | 0 | 0 | 0.243 | 0 |
| QPPLPDQCP [5T4 9-mer peptide 28 QPPLPDQCP] | 0 | 0 | 0 | 0 |
| ECSEAARTV [5T4 9-mer peptide 34 ECSEAARTV] | 0 | 0 | 0 | 0 |
| TEVPTDLPA [5T4 9-mer peptide 42 TEVPTDLPA] | 0 | 0 | 0 | 0 |
| VSSSSPTSS [5T4 9-mer peptide 15 VSSSSPTSS] | 0 | 0 | 0 | 0 |
| AGDGRLRLA [5T4 9-mer peptide 6 AGDGRLRLA] | 0 | 0 | 0.023 | 0 |
| VKCVNRNLT [5T4 9-mer peptide 38 VKCVNRNLT] | 0 | 0 | 0 | 0 |
| RTVKCVNRN [5T4 9-mer peptide 37 RTVKCVNRN] | 0 | 0 | 0 | 0 |
| PDQCPALCE [5T4 9-mer peptide 30 PDQCPALCE] | 0 | 0 | 0 | 0 |
| LCECSEAAR [5T4 9-mer peptide 33 LCECSEAAR] | 0 | 0 | 0 | 0 |
| SSSPTSSAS [5T4 9-mer peptide 16 SSSPTSSAS] | 0 | 0 | 0 | 0 |
| TDLPAYVRN [5T4 9-mer peptide 44 TDLPAYVRN] | 0 | 0 | 0 | 0 |
| SASSFSSSA [5T4 9-mer peptide 19 SASSFSSSA] | 0 | 0 | 0.045 | 0 |
| PLPDQCPAL [5T4 9-mer peptide 29 PLPDQCPAL] | 0 | 0 | 0.88 | 0 |
| TSSASSFSS [5T4 9-mer peptide 18 TSSASSFSS] | 0 | 0 | 0.037 | 0 |
| MPGGCSRGP [5T4 9-mer peptide 1 MPGGCSRGP] | 0 | 0 | 0 | 0 |
| FLASAVSAQ [5T4 9-mer peptide 24 FLASAVSAQ] | 0 | 0 | 0.134 | 0 |
| LALVLLGWV [5T4 9-mer peptide 11 LALVLLGWV] | 0 | 0 | 0.237 | 0 |
| NLTEVPTDL [5T4 9-mer peptide 41 NLTEVPTDL] | 0 | 0 | 0.253 | 0 |

| Binder | iScore [1] | iScore [2] | iScore [3] | iScore [4] |
| --- | --- | --- | --- | --- |
| SPTSSASSF [5T4 9-mer peptide 17 SPTSSASSF] | 0 | 0.335 | 0 | 0 |
| AVSAQPPLP [5T4 9-mer peptide 26 AVSAQPPLP] | 0 | 0 | 0.062 | 0 |
| GGCSRGPAA [5T4 9-mer peptide 2 GGCSRGPAA] | 0 | 0.012 | 0.016 | 0 |
| DGRLRLARL [5T4 9-mer peptide 7 DGRLRLARL] | 0 | 0.038 | 0 | 0 |
| SAQPPLPDQ [5T4 9-mer peptide 27 SAQPPLPDQ] | 0 | 0 | 0 | 0 |
| RLRLARLAL [5T4 9-mer peptide 8 RLRLARLAL] | 0.027 | 1 | 0.216 | 0 |
| QCPALCECS [5T4 9-mer peptide 31 QCPALCECS] | 0 | 0 | 0 | 0 |
| ARLALVLLG [5T4 9-mer peptide 10 ARLALVLLG] | 0 | 0 | 0.143 | 0 |
| SSAPFLASA [5T4 9-mer peptide 22 SSAPFLASA] | 0 | 0 | 0.389 | 0 |
| NRNLTEVPT [5T4 9-mer peptide 40 NRNLTEVPT] | 0 | 0 | 0 | 0 |
| LPAYVRNLF [5T4 9-mer peptide 45 LPAYVRNLF] | 0 | 0.389 | 0 | 0 |
| SSFSSSAPF [5T4 9-mer peptide 20 SSFSSSAPF] | 0 | 0 | 0.037 | 0 |
| PAAGDGRLR [5T4 9-mer peptide 5 PAAGDGRLR] | 0 | 0 | 0 | 0 |
| AARTVKCVN [5T4 9-mer peptide 36 AARTVKCVN] | 0 | 0.059 | 0.115 | 0 |
| LVLLGWVSS [5T4 9-mer peptide 12 LVLLGWVSS] | 0 | 0 | 0.122 | 0 |
| APFLASAVS [5T4 9-mer peptide 23 APFLASAVS] | 0 | 0.176 | 0.041 | 0 |
| RGPAAGDGR [5T4 9-mer peptide 4 RGPAAGDGR] | 0 | 0 | 0.032 | 0 |
| GWVSSSSPT [5T4 9-mer peptide 14 GWVSSSSPT] | 0 | 0 | 0.044 | 0 |
| ASAVSAQPP [5T4 9-mer peptide 25 ASAVSAQPP] | 0 | 0 | 0 | 0 |
| VPTDLPAYV [5T4 9-mer peptide 43 VPTDLPAYV] | 0 | 0 | 0.059 | 0.098 |
| VRNLFLTGN [5T4 9-mer peptide 47 VRNLFLTGN] | 0 | 0 | 0 | 0 |
| FSSSAPFLA [5T4 9-mer peptide 21 FSSSAPFLA] | 0 | 0 | 0.116 | 0.023 |
| PALCECSEA [5T4 9-mer peptide 32 PALCECSEA] | 0 | 0 | 0.082 | 0 |
